Laboratory results: paper PMC4546420

Target: MBP-linker-MPR-TM (HIV-1) (UniProt P04578)
Assay: SEC; Superdex-200 HR 10/300, 20 mM NaCl, 20 mM Tris-HCl pH 7.5, 0.015% beta-DDM; calibrated with protein standards; protein in beta-DDM micelles

MBP-linker-MPR-TM (from UniProt P04578 649-705) (domain or fragment)
stoichiometry N: > 6
